Among the data in patent US20250277057A1 (OKLAHOMA MEDICAL RESEARCH FOUNDATION, published 2025) are Bmax values, retold here.

Assay [1] has as its target T1, human activated protein C (human, UniProt P04070 43-197; P04070 212-461).
T1 construct: In the plasma assays aPC is generated in human plasma with Protac; also called aPC; haPC
Briefly: direct antigen coating ELISA (KD ELISA) of Fab periplasmic extract, anti-c-myc HRP. On the procedure:
Each well of 96-well plates was coated with an anti-Fab antibody in a coating buffer PBS with pH 7.4 at 4° C. The next day, the plates were blocked with casein in PBS with pH 7.4 at 25° C. for 1 hour. Then, Fab PE was added to the plates, and incubated at 25° C. for 1 hour. After the plates were washed, biotinylated antigen was added to the wells and incubated at 25° C. for 1 hour. Then, the biotinylated antigen was incubated with an SA-horseradish peroxidase (HRP) conjugate at 25° C. for 1 hour. HRP activity was detected with a tetramethylbenzidine (TMB) substrate, and the reaction was quenched with 2M HCl. The plates were read at 450 nm. […] The binding-improved mutants with unique sequences of HAPC-14 were ranked by direct antigen coating ELISA.
Each well of 96-well plates was coated with hPro1. biotin in 1×PBS buffer with pH 7.4, and incubation was carried out overnight at 4° C. The next day, the plates were blocked with casein in 1×PBS buffer with pH 7.4 at 25° C. for 1 hour. Fab PE of each mutant diluted according to one concentration was added to the plates and incubated at 25° C. for 1 hour. Then the Fab PE was incubated with goat anti-c-myc HRP conjugated at 25° C. for 1 hour. HRP activity was detected with a tetramethylbenzidine (TMB) substrate, and the reaction was quenched with 2M HCl. OD values of each plate were read at 450 nm.
In general terms: An ELISA detects its analyte on a solid surface through an enzyme-linked reagent.

Assay [2] deals with T1, human activated protein C. The assay is described as follows: KD ELISA ranking, direct antigen coating ELISA of Fab.

Substitutions are numbered along the chain they refer to. Numbers in names are those of the source.

B1: HAPC-14-R1-1H1-F2 (Fab, V domains shown)
VH: EVQLVESGGGLVQPGGSLRLSCAASGFTFSFYYLNWVRQAPGKGLEWVGDIRLKSNNYEKHYAESVKGRFTISRDDSKSITYLQMNSLRAEDTAVYYCAREGDYFDYWGQGTTVTVSS
VL: DIQLTQSPSSLSASVGDRVTITCRASESVDSFGATFMHWYQQKPGKAPKLLIYLASNLESGVPSRFSGSGSGTDFTLTISSLQPEDFATYYCQQNNEDPYTFGQGTKLEIK
notes: Single-site mutant Fab of HAPC-14 in periplasmic extract
Molecule B1 yielded a Bmax in assay [1] of 0.278.

B2: R2-9C1 (Fab, V domains shown)
VH: B1 VH with S55K
VL: B1 VL with N57W, Q93V
notes: Combinatorial mutant Fab of HAPC-14; also called combinatorial mutant No. 16
B2: the Bmax in assay [2] worked out at 1.09.

B3: HAPC-14-R1-2L4-B2 (Fab, V domains shown)
VH: B1 VH with F31N
VL: B1 VL with N57W
notes: Single-site mutant Fab of HAPC-14
As for B3, the Bmax in assay [1] came out at 0.662.

B4: HAPC-14-R1-2L4-G9 (Fab, V domains shown)
VH: B1 VH with F31N
VL: B1 VL with N57K
notes: Single-site mutant Fab of HAPC-14; inferred from the clone name (2L4, same site as N57R/W)
On to B4, for which the Bmax in assay [1] turned out to be 0.287.

B5: R2-24H1 (Fab, V domains shown)
VH: B1 VH
VL: B1 VL with N57R, E59G, Q93V
notes: Combinatorial mutant Fab of HAPC-14; also called combinatorial mutant No. 8
Take B5: the Bmax in assay [2] worked out at 1.25.

B6: R2-26E4 (Fab, V domains shown)
VH: B1 VH with S55K
VL: B1 VL with N57R, E59G, Q93V
notes: Combinatorial mutant Fab of HAPC-14; also called combinatorial mutant No. 4
With B6, the Bmax in assay [2] came to 1.21.

B7: HAPC-14-R1-2L6-G1 (Fab, V domains shown)
VH: B1 VH with F31N
VL: B1 VL with E59G
notes: as for B3
In turn, B7 yielded a Bmax in assay [1] of 0.492.

B8: HAPC-14-R1-2H6-C2 (Fab, V domains shown)
VH: B1 VH with F31N, S55K
VL: B1 VL
notes: as for B3
As for B8, in assay [1], the Bmax was 0.262.

B9: R2-23H2 (Fab, V domains shown)
VH: B1 VH with S55K
VL: B1 VL with N57W, E59G
notes: Combinatorial mutant Fab of HAPC-14; also called combinatorial mutant No. 2
Regarding B9, the Bmax in assay [2] is 1.26.

B10: R2-32E6 (Fab, V domains shown)
VH: B1 VH with S55K
VL: B1 VL with N57W, E59G, Q93V
notes: Combinatorial mutant Fab of HAPC-14; Printed CDRs are the same as those of R2-24F3; also called combinatorial mutant No. 14
Molecule B10 registered a Bmax in assay [2] of 1.41.

B11: R2-24D4 (Fab, V domains shown)
VH: B1 VH with S55K, Y104T
VL: B1 VL with N57W, E59P
notes: Combinatorial mutant Fab of HAPC-14; also called combinatorial mutant No. 10
On to B11, for which the Bmax in assay [2] worked out at 0.717.

B12: R2-29D9 (Fab, V domains shown)
VH: B1 VH with S55K, Y104T
VL: B1 VL with N57R, E59P, Q93V
notes: Combinatorial mutant Fab of HAPC-14; also called combinatorial mutant No. 7
For B12, the Bmax in assay [2] was found to be 0.96.

B13: R2-27G7 (Fab, V domains shown)
VH: B1 VH with S55K
VL: B1 VL with N57R, E59G
notes: Combinatorial mutant Fab of HAPC-14; also called combinatorial mutant No. 6
As to B13, the Bmax in assay [2] worked out at 0.715.

B14: R2-25G5 (Fab, V domains shown)
VH: B1 VH with S55K
VL: B1 VL with N57W, E59P, Q93V
notes: Combinatorial mutant Fab of HAPC-14; also called combinatorial mutant No. 3
As for B14, the Bmax in assay [2] worked out at 1.04.

B15: R2-30F7 (Fab, V domains shown)
VH: B1 VH
VL: B1 VL with N57R, E59P, Q93V
notes: Combinatorial mutant Fab of HAPC-14; also called combinatorial mutant No. 11
The molecule B15 displayed a Bmax in assay [2] of 0.617.

B16: R2-25B7 (Fab, V domains shown)
VH: B1 VH
VL: B1 VL with N57W, E59P, Q93V
notes: Combinatorial mutant Fab of HAPC-14; also called combinatorial mutant No. 5
For B16, the Bmax in assay [2] is 1.07.

B17: HAPC-14-R1-2L4-A1 (Fab, V domains shown)
VH: B1 VH with F31N
VL: B1 VL with N57L
notes: as for B4
As to B17, in assay [1], the Bmax was found to be 0.244.

B18: R2-22A10 (Fab, V domains shown)
VH: B1 VH with S55K
VL: B1 VL with N57R, Q93V
notes: Combinatorial mutant Fab of HAPC-14; also called combinatorial mutant No. 9
In assay [2], B18 yielded a Bmax of 1.01.

B19: HAPC-14-R1-3L1-G8 (Fab, V domains shown)
VH: B1 VH with F31N
VL: B1 VL with Q93V
notes: as for B3
In assay [1], B19 showed a Bmax of 0.24.

B20: HAPC-14-R1-3L1-D11 (Fab, V domains shown)
VH: B1 VH with F31N
VL: B1 VL with Q93W
notes: Single-site mutant Fab of HAPC-14; inferred from the clone name (3L1, same site as Q93V)
In assay [1], B20 returned a Bmax of 0.261.

B21: HAPC-14-R1-3H4-C6 (Fab, V domains shown)
VH: B1 VH with F31N, Y104T
VL: B1 VL
notes: as for B3
On to B21, for which the Bmax in assay [1] was found to be 0.325.

B22: HAPC-14-R1-2L4-D4 (Fab, V domains shown)
VH: B1 VH with F31N
VL: B1 VL with N57R
notes: as for B3
For the molecule B22, the Bmax in assay [1] turned out to be 0.567.

B23: HAPC-14-R1-3H7-F2 (Fab, V domains shown)
VH: B1 VH with F31N, Y107P
VL: B1 VL
notes: Single-site mutant Fab of HAPC-14; inferred from the clone name (3H7 = VH CDR3, 7th residue)
Regarding B23, the Bmax in assay [1] came out at 0.193.

B24: R2-24F3 (Fab, V domains shown)
VH: B1 VH with S55K
VL: B1 VL with N57W, E59G, Q93V
notes: Combinatorial mutant Fab of HAPC-14; Printed CDRs are the same as those of R2-32E6; also called combinatorial mutant No. 1
In assay [2], B24 showed a Bmax of 1.37.

B25: HAPC-14-R1-1L7-B9 (Fab, V domains shown)
VH: B1 VH with F31N
VL: B1 VL with D30A
notes: Single-site mutant Fab of HAPC-14; inferred from the clone name (1L7 = VL CDR1, 7th residue, the only D of that CDR)
In turn, B25 registered a Bmax in assay [1] of 0.151.

B26: R2-23E10 (Fab, V domains shown)
VH: B1 VH
VL: B1 VL with N57W, E59G
notes: Combinatorial mutant Fab of HAPC-14; also called combinatorial mutant No. 12
In turn, B26 registered a Bmax in assay [2] of 1.24.

B27: HAPC-14-R1-3H4-C5 (Fab, V domains shown)
VH: B1 VH with F31N, Y104S
VL: B1 VL
notes: Single-site mutant Fab of HAPC-14; inferred from the clone name (3H4 = VH CDR3, 4th residue, same site as Y104T)
Take B27: the Bmax in assay [1] came out at 0.328.

B28: HAPC-14-R1-2L6-F2 (Fab, V domains shown)
VH: B1 VH with F31N
VL: B1 VL with E59K
notes: Single-site mutant Fab of HAPC-14; inferred from the clone name (2L6, same site as E59G/P)
Molecule B28 displayed a Bmax in assay [1] of 0.299.

B29: R2-22B6 (Fab, V domains shown)
VH: B1 VH
VL: B1 VL with N57R, E59G
notes: Combinatorial mutant Fab of HAPC-14; also called combinatorial mutant No. 15
In turn, B29 came in with a Bmax in assay [2] of 1.21.
